The text below walks through data of EP4703382A1 (Kanglitai Biomedical (Qingdao) Co., Ltd., dated 2026).

“And” between values parts separate entries of the source, which are not always exact repeats. Identical values can stand only once. Like-named read-outs stand apart in the source and are kept apart here.

The target in one assay is T1, HAS (UniProt P02768 25-609).
T1 construct: unrelated protein of the specificity ELISA; label read as HSA
The experiment in a line: ELISA, 200 ng/well coated, anti-His HRP.

Another assay addresses T2, BSA (UniProt P02769 25-607).
T2 construct: unrelated protein of the specificity ELISA
The experiment in a line: ELISA, 200 ng/well coated, anti-His HRP.

For assay [1], the target named is T3, human PDL1-Fc fusion protein (human).
T3 construct: also called human PDL1-Fc recombinant protein
The experiment in a line: ELISA, human PDL1-Fc coated 200 ng/well, anti-His HRP.

Assay [2] concerns the target T3, human PDL1-Fc fusion protein. The assay is described as above. This is another data set of the same source.
Assay [3] shares this target. Described as above. This is another data set of the same source.
Assay [4] has the same target. Briefly: BLI (ForteBIO Octet QKe), PDL1-Fc loaded, analyte 100 nM.
For assay [5] the target is unchanged. The assay is described as above. The source holds these as a separate data set.
Assay [6] addresses T4, recombinant protein PD-L1-His (human, UniProt Q9NZQ7 19-238).
T4 construct: also called PD-L1-his fusion protein; human PDL1-his protein
Briefly: competitive ELISA, PDL1-his coated, competitor PD1-Fc 50 µg/mL.

Assay [7] has as its target T4, recombinant protein PD-L1-His. The assay is described as above. This is another data set of the same source.
Assay [8] deals with T5, human PD-L1 expressed on Raji cells (human, UniProt Q9NZQ7 19-290).
T5 construct: whole, on cells; also called Raji-PDL1; PDL1 protein expressed on Raji cells
The experiment in a line: flow cytometry competition on Raji-PDL1 cells, competitor PD1-Fc.

In assay [9] the target is T5, human PD-L1 expressed on Raji cells. The assay is described as above. This is another data set of the same source.
For assay [10] the target is unchanged. Briefly: flow cytometry on Raji cells expressing human PD-L1, anti-His FITC.

T4 sequence (Q9NZQ7 19-238 limits assumed): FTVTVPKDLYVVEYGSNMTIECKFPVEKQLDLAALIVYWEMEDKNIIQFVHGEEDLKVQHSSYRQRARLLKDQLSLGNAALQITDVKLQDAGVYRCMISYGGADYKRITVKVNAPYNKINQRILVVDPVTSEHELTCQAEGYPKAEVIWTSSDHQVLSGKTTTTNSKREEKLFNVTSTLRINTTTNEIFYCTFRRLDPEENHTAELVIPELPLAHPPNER
T5 sequence (Q9NZQ7 19-290): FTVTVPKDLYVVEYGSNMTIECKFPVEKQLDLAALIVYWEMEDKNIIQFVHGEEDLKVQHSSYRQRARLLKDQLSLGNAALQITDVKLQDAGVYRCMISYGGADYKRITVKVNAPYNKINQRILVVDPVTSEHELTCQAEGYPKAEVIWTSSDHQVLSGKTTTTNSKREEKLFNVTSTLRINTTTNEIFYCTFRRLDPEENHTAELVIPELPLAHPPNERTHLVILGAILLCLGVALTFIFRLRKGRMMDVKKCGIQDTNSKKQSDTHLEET
T3 sequence (chain, as listed by the source limits assumed): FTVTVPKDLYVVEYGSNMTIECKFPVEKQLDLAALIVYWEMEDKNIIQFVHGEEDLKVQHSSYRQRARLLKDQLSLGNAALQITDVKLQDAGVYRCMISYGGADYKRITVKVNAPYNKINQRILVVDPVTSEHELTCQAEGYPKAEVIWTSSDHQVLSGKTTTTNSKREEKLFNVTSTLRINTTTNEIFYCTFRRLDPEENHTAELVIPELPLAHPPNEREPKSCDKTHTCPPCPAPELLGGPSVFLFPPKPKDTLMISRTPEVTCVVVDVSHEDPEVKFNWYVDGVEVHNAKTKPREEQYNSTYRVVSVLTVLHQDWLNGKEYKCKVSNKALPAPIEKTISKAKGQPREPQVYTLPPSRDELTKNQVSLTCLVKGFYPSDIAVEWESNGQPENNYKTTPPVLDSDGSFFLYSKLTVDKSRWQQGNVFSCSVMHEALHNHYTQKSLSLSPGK
T2 sequence (P02769 25-607 limits assumed): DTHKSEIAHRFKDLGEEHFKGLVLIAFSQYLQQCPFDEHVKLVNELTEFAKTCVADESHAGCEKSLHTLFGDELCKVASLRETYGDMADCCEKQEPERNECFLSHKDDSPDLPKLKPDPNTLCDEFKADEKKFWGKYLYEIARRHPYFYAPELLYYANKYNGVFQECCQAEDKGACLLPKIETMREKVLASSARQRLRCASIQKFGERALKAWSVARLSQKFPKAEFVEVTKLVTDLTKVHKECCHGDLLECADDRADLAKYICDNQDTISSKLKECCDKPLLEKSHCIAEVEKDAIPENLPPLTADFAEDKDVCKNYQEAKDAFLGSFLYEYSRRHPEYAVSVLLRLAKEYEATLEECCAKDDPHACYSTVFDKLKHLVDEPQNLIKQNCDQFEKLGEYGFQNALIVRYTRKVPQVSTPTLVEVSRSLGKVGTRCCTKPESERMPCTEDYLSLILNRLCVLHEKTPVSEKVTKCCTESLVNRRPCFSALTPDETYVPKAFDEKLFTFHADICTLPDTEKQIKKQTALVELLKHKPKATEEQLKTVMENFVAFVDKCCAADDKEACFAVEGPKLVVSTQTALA

B1: PDL1-13 (VHH)
VHH: QVQLQESGGGLVQPGGSLRLSCAASGFTFSTSFVSWVRQAPGKGLEWVSRISPGGASTSYADSVKGRFTISRDNAENTLYLQMNSLKPEDTALYYCAREIYSGRFSGFDYWGQGTQVTVSS
notes: Alpaca nanobody expressed in E. coli, His-tagged
Turning to B1, the binding result in the assay with HAS and in the assay with BSA was “no binding (tested: 0.2 µg)” in each case. In assay [1], the midpoint of the response, the EC50, lay at 0.0661 µg/mL.

B2: PDL1-1 (VHH)
VHH: QVQLQESGGGLVQPGGSLTLSCAASGFTVSNSAVSWARQAPGKGLEWVSLIDSNRNTVYAQSVRGRFTISRDNVKNTVYLQMNSLKPEDTAVYYCAKGIWGSTLTGQGTQVTVSS
notes: Alpaca nanobody expressed in E. coli, purified on HisTrap and detected with anti-His antibody; also called PD-L1-1 heavy chain single-domain antibody; P1
As to B2, the binding result with HAS and with BSA was “no binding (tested: 0.2 µg)” throughout. Moreover, the EC50 was 0.00825 µg/mL in assay [2]; 0.0421 µg/mL and 3.48 nM in assay [3]; 0.0606 µg/mL in assay [10]. The Kd in [4] was found to be 3.39 nM; in assay [5], 2.96 nM. For the same molecule, the koff in [4] turned out to be 0.00563 s⁻¹; in [5] it was 0.00532 s⁻¹. Besides, the kon in assay [4] worked out at 1.66e+06 M⁻¹ s⁻¹; in assay [5], 1.8e+06 M⁻¹ s⁻¹. Moreover, the IC50 in assay [6] worked out at 2.32 µg/mL; in [7] it was 5.8 µg/mL; in [8], 0.0626 µg/mL; in [9], 0.477 µg/mL.

B3: PDL1-14 (VHH)
VHH: QVQLQESGGGLVQPGGSLRLSCAASGIISDINMVAWYRQAPGKQRELVAKIFRGGSTYYTDFVKGRFTISRENAKNTVYLQMNSLKPDDTAVYYCNARIQIRADRDYSDYWGQGTQVTVSS
notes: as for B1
With B3, the binding result in the assay with HAS and with BSA was “no binding (tested: 0.2 µg)” each time. This molecule also gave an EC50 in [1] of 0.123 µg/mL.

B4: PDL1-3 (VHH)
VHH: QVQLQESGGGLVQPGGSLRLSCAGSGSIFRITPVAWYRQAPEKQRELVAVITDNGSTDYGDFVKGRFTISRDNAKNTVYLQMNSLKPEDTAVYYCNSRARPVRWTWGQGTQVTVSS
notes: as for B1
With B4, the binding result in the assay with HAS and in the assay with BSA was “no binding (tested: 0.2 µg)” each time. Besides, the EC50 came to 0.0128 µg/mL in [2] and 0.073 µg/mL in assay [10]. Besides, the IC50 in [6] was 1.31 µg/mL; in assay [8] it was 0.0406 µg/mL.
